In patent US20110300138A1 (published 2011):
Like-named read-outs stand apart in the source and are kept apart here.

Assays:
Test in all cases: cell-based or functional assay
[1] = target: TSHR with Glu107 mutated to Ala expressed in CHO cells (human) (UniProt P16473)
[2] = target: TSHR with Glu157 mutated to Ala, expressed in CHO cells (human) (UniProt P16473)
[3] = target: TSHR with Glu178 mutated to Ala expressed in CHO cells (human) (UniProt P16473)
[4] = target: TSHR with Glu61 mutated to Ala, expressed in CHO cells (human) (UniProt P16473)
[5] = target: TSHR with Thr257 mutated to Ala (human) (UniProt P16473)
[6] = target: TSHR with Trp258 mutated to Ala (human) (UniProt P16473)
[7] = target: TSHR with Tyr206 mutated to Ala (expressed in CHO cells) (human) (UniProt P16473)
Sequence of TSHR with Tyr206 mutated to Ala (expressed in CHO cells) (human) (P16473 other isoform, or with tags, fused parts or gaps limits assumed, change not shown): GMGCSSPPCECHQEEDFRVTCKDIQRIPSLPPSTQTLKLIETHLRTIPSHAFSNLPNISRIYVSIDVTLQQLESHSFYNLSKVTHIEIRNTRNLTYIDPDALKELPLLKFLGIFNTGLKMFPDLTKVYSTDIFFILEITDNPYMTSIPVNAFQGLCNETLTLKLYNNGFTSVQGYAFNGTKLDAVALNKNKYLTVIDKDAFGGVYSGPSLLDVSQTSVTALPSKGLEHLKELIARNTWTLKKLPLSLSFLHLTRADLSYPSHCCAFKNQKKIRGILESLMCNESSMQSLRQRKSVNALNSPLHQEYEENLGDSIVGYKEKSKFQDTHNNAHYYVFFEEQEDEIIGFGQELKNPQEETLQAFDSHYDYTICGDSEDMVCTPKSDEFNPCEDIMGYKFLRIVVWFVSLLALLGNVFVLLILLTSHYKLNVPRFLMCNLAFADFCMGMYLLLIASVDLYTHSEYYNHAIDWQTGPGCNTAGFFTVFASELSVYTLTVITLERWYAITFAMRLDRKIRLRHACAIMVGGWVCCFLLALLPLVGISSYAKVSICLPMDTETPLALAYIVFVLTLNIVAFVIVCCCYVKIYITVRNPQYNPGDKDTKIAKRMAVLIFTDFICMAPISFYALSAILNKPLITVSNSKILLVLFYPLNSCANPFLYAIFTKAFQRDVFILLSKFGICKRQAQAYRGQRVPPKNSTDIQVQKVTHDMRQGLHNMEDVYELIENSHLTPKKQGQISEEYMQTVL

Sequence of TSHR with Glu178 mutated to Ala expressed in CHO cells (human) (P16473 other isoform, or with tags, fused parts or gaps, change not shown): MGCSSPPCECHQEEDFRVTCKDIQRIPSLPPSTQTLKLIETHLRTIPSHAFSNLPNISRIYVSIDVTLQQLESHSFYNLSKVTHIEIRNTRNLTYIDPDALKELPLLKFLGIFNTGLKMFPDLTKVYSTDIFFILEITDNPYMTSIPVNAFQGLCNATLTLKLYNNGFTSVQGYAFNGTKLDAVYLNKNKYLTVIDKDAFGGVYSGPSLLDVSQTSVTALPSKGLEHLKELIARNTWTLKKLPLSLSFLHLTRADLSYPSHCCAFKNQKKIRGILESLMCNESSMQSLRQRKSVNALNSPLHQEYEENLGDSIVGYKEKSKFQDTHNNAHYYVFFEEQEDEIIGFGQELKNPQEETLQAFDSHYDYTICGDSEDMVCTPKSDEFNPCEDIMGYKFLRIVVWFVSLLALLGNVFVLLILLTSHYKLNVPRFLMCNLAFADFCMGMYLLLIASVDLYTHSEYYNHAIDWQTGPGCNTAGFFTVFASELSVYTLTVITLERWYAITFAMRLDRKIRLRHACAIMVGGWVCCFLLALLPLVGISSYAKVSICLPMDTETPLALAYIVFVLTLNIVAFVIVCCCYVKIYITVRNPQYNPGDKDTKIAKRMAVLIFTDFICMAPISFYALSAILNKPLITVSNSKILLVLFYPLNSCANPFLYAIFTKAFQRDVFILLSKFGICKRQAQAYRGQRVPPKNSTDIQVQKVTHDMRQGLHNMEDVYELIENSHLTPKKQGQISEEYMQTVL
Sequence of TSHR with Glu157 mutated to Ala, expressed in CHO cells (human) (P16473 other isoform, or with tags, fused parts or gaps, change not shown): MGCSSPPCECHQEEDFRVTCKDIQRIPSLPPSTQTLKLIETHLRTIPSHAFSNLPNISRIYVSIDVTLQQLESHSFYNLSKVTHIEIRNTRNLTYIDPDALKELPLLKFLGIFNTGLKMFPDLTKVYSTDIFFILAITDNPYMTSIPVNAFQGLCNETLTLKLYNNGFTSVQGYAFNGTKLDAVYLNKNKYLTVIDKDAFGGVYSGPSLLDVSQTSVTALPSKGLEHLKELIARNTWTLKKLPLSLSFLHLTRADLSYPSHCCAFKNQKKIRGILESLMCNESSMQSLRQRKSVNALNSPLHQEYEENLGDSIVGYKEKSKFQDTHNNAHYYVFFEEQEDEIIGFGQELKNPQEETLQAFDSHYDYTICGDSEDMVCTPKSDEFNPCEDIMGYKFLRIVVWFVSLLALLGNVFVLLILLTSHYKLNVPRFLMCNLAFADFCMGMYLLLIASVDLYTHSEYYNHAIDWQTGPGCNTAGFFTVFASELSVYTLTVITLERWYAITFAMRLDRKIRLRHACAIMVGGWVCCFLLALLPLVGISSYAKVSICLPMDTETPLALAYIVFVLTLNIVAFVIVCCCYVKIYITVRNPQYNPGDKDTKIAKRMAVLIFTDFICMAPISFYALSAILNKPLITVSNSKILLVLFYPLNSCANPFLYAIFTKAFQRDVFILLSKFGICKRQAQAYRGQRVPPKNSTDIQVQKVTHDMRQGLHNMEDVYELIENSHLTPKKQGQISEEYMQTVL
Sequence of TSHR with Glu107 mutated to Ala expressed in CHO cells (human) (P16473 other isoform, or with tags, fused parts or gaps, change not shown): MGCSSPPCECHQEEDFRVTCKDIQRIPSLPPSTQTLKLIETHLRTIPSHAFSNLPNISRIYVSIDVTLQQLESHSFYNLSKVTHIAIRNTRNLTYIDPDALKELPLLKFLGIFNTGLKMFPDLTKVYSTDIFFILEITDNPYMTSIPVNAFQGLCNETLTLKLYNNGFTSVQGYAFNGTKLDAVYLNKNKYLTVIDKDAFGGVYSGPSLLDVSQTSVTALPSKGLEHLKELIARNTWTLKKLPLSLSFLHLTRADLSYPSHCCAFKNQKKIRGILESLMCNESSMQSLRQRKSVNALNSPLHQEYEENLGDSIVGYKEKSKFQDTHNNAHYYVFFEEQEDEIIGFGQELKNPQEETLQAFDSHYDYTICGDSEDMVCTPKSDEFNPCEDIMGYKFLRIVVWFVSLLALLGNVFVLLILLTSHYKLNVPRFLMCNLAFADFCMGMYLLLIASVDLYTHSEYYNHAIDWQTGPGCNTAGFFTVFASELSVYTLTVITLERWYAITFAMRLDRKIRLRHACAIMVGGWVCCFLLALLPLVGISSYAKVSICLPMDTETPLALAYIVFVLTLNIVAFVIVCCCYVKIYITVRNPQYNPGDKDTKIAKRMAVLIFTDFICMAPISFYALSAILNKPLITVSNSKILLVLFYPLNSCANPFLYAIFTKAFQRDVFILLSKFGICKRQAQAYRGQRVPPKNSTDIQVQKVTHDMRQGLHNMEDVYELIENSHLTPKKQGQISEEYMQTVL
Sequence of TSHR with Thr257 mutated to Ala (human) (P16473 other isoform, or with tags, fused parts or gaps, change not shown): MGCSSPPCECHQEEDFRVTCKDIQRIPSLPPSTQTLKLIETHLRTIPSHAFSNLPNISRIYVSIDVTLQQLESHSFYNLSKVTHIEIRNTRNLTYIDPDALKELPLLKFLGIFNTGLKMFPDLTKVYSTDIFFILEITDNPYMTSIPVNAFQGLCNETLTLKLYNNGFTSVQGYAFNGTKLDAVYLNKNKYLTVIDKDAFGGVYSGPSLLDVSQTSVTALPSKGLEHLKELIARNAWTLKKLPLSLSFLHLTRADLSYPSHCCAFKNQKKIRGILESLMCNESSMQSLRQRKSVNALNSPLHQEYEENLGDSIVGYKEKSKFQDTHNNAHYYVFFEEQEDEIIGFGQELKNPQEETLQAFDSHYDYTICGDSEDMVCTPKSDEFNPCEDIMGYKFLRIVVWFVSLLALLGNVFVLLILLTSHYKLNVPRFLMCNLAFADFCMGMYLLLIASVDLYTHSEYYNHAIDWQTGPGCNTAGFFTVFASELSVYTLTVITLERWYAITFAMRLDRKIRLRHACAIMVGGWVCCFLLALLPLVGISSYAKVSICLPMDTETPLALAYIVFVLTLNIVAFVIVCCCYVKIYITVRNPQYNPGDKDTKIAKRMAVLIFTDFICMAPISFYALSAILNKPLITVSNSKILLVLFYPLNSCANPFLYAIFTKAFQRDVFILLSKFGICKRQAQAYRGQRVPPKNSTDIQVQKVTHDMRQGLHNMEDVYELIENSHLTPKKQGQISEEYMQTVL
Sequence of TSHR with Trp258 mutated to Ala (human) (P16473 other isoform, or with tags, fused parts or gaps, change not shown): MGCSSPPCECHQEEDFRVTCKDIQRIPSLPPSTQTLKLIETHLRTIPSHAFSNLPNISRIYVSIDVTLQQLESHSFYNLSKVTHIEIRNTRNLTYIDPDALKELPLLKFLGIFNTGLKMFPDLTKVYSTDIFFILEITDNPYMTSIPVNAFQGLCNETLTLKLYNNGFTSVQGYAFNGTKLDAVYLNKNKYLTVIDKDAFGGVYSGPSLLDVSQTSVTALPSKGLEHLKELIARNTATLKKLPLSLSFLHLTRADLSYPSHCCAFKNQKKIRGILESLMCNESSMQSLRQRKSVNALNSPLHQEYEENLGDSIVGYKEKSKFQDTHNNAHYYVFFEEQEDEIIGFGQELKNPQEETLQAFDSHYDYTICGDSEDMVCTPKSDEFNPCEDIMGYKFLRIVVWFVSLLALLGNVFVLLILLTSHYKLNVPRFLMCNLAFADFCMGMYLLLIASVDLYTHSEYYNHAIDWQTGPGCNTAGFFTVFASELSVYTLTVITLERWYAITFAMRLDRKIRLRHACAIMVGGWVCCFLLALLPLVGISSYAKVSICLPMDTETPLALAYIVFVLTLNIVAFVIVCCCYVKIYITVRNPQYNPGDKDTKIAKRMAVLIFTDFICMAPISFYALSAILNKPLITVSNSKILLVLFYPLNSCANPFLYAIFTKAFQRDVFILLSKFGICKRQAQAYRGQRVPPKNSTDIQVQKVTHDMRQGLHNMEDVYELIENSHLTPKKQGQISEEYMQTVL

TSH (ligand)
Cyclic AMP produced; TSH 3 ng/mL [1]: 83.7 pmol/mL
Cyclic AMP produced; TSH (2) [1]: 73.2 pmol/mL
Mutated/Wild type (%) of cyclic AMP produced, TSH 0.01 ng/mL [1]: 582%
Mutated/Wild type (%) of cyclic AMP produced, TSH 0.03 ng/mL [1]: 448%
Mutated/Wild type (%) of cyclic AMP produced, TSH 0.1 ng/mL [1]: 149%
Mutated/Wild type (%) of cyclic AMP produced, TSH 0.3 ng/mL [1]: 97%
Mutated/Wild type (%) of cyclic AMP produced, TSH 1 ng/mL [1]: 68%
Mutated/wild type (%) of cyclic AMP produced; TSH 3 ng/mL [1]: 82%
Mutated/wild type (%) of cyclic AMP produced; TSH (2) [1]: 78%
Mutated/wild type (%) of cyclic AMP produced; TSH 3 ng/mL ([1]; record 2): 110%
Mutated/Wild type (%) of cyclic AMP produced, TSH 0.01 ng/mL [2]: 450%
Mutated/Wild type (%) of cyclic AMP produced, TSH 0.03 ng/mL [2]: 328%
Mutated/Wild type (%) of cyclic AMP produced, TSH 0.1 ng/mL [2]: 164%
Mutated/Wild type (%) of cyclic AMP produced, TSH 0.3 ng/mL [2]: 118%
Mutated/Wild type (%) of cyclic AMP produced, TSH 1 ng/mL [2]: 86%
Mutated/wild type (%) of cyclic AMP produced; TSH 3 ng/mL [2]: 115%
Mutated/Wild type (%) of cyclic AMP produced, TSH 0.01 ng/mL [3]: 467%
Mutated/Wild type (%) of cyclic AMP produced, TSH 0.03 ng/mL [3]: 240%
Mutated/Wild type (%) of cyclic AMP produced, TSH 0.1 ng/mL [3]: 115%
Mutated/Wild type (%) of cyclic AMP produced, TSH 0.3 ng/mL [3]: 71%
Mutated/Wild type (%) of cyclic AMP produced, TSH 1 ng/mL [3]: 54%
% inhibition of TSH stimulation; TSH (2), run at the end of assay [4]: 17%
Mutated/Wild type (%) of cyclic AMP produced, TSH 0.01 ng/mL [4]: 470%
Mutated/Wild type (%) of cyclic AMP produced, TSH 0.03 ng/mL [4]: 369%
Mutated/Wild type (%) of cyclic AMP produced, TSH 0.1 ng/mL [4]: 271%
Mutated/Wild type (%) of cyclic AMP produced, TSH 0.3 ng/mL [4]: 188%
Mutated/Wild type (%) of cyclic AMP produced, TSH 1 ng/mL [4]: 129%
Mutated/wild type (%) of cyclic AMP produced; TSH 3 ng/mL [4]: 110%
Mutated/wild type (%) of cyclic AMP produced; TSH (2) 3 ng/mL, run at the end of assay [4]: 51%
Mutated/wild type (%) of cyclic AMP produced; TSH 3 ng/mL ([4]; record 2): 67%
Mutated/Wild type (%) of cyclic AMP produced, TSH 0.01 ng/mL [5]: 90%
Mutated/Wild type (%) of cyclic AMP produced, TSH 0.03 ng/mL [5]: 93%
Mutated/Wild type (%) of cyclic AMP produced, TSH 0.1 ng/mL [5]: 92%
Mutated/Wild type (%) of cyclic AMP produced, TSH 0.3 ng/mL [5]: 105%
Mutated/Wild type (%) of cyclic AMP produced, TSH 1 ng/mL [5]: 94%
Mutated/wild type (%) of cyclic AMP produced; TSH 3 ng/mL [5]: 86%
Cyclic AMP produced, TSH 0.01 ng/mL, Experiment 1 [6]: 1.93 pmol/mL
Cyclic AMP produced, TSH 0.01 ng/mL, Experiment 2 [6]: 1.56 pmol/mL
Cyclic AMP produced, TSH 0.03 ng/mL, Experiment 1 [6]: 2.88 pmol/mL
Cyclic AMP produced, TSH 0.03 ng/mL, Experiment 2 [6]: 2.76 pmol/mL
Cyclic AMP produced, TSH 0.1 ng/mL, Experiment 1 [6]: 7.51 pmol/mL
Cyclic AMP produced, TSH 0.1 ng/mL, Experiment 2 [6]: 7.04 pmol/mL
Cyclic AMP produced, TSH 0.3 ng/mL, Experiment 1 [6]: 22.3 pmol/mL
Cyclic AMP produced, TSH 0.3 ng/mL, Experiment 2 [6]: 17.3 pmol/mL
Cyclic AMP produced, TSH 1 ng/mL, Experiment 1 [6]: 45.7 pmol/mL
Cyclic AMP produced, TSH 1 ng/mL, Experiment 2 [6]: 49.2 pmol/mL
Cyclic AMP produced; TSH 3 ng/mL; Experiment 1 [6]: 54 pmol/mL
Cyclic AMP produced; TSH 3 ng/mL; Experiment 2 [6]: 84.7 pmol/mL
Mutated/Wild type (%) of cyclic AMP produced, TSH 0.01 ng/mL, Experiment 1 [6]: 158%
Mutated/Wild type (%) of cyclic AMP produced, TSH 0.01 ng/mL, Experiment 2 [6]: 77%
Mutated/Wild type (%) of cyclic AMP produced, TSH 0.03 ng/mL, Experiment 1 [6]: 156%
Mutated/Wild type (%) of cyclic AMP produced, TSH 0.03 ng/mL, Experiment 2 [6]: 141%
Mutated/Wild type (%) of cyclic AMP produced, TSH 0.1 ng/mL, Experiment 1 [6]: 154%
Mutated/Wild type (%) of cyclic AMP produced, TSH 0.1 ng/mL, Experiment 2 [6]: 156%
Mutated/Wild type (%) of cyclic AMP produced, TSH 0.3 ng/mL, Experiment 1 [6]: 128%
Mutated/Wild type (%) of cyclic AMP produced, TSH 0.3 ng/mL, Experiment 2 [6]: 128%
Mutated/Wild type (%) of cyclic AMP produced, TSH 1 ng/mL, Experiment 1 [6]: 86%
Mutated/Wild type (%) of cyclic AMP produced, TSH 1 ng/mL, Experiment 2 [6]: 114%
Mutated/wild type (%) of cyclic AMP produced; TSH 3 ng/mL; Experiment 1 [6]: 76%
Mutated/wild type (%) of cyclic AMP produced; TSH 3 ng/mL; Experiment 2 [6]: 100%
Mutated/Wild type (%) of cyclic AMP produced, TSH 0.01 ng/mL, Experiment 1 [7]: 83%
Mutated/Wild type (%) of cyclic AMP produced, TSH 0.01 ng/mL, Experiment 2 [7]: 135%
Mutated/Wild type (%) of cyclic AMP produced, TSH 0.03 ng/mL, Experiment 1 [7]: 124%
Mutated/Wild type (%) of cyclic AMP produced, TSH 0.03 ng/mL, Experiment 2 [7]: 144%
Mutated/Wild type (%) of cyclic AMP produced, TSH 0.1 ng/mL, Experiment 1 [7]: 93%
Mutated/Wild type (%) of cyclic AMP produced, TSH 0.1 ng/mL, Experiment 2 [7]: 178%
Mutated/Wild type (%) of cyclic AMP produced, TSH 0.3 ng/mL, Experiment 1 [7]: 104%
Mutated/Wild type (%) of cyclic AMP produced, TSH 0.3 ng/mL, Experiment 2 [7]: 110%
Mutated/Wild type (%) of cyclic AMP produced, TSH 1 ng/mL, Experiment 1 [7]: 66%
Mutated/Wild type (%) of cyclic AMP produced, TSH 1 ng/mL, Experiment 2 [7]: 93%
Mutated/wild type (%) of cyclic AMP produced; TSH 3 ng/mL; Experiment 1 [7]: 62%
Mutated/wild type (%) of cyclic AMP produced; TSH 3 ng/mL; Experiment 2 [7]: 97%
